The values below come from patent publication US20180362643A1 (Amgen, published 2018).

Ends that are not written are not given here.

Assay [1] concerns the target T1, full-length human PACAP38 (human, not fully specified).
T1 peptide: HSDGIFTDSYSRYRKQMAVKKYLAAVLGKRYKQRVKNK
The assay is described as follows: cell-based or functional assay.

In assay [2] the target is T2, PACAP38 peptide fragment 11-27 (human).
T2 construct: also called peptide No. 8
T2 peptide: SRYRKQMAVKKYLAAVL
In words: SPR (Biacore 3000), solution competition with the peptide for antibody binding to immobilised full-length PACAP38; % inhibition. (SPR reads the build-up and loss of mass on a sensor chip optically.)

For the next assay, the target named is T3, human PACAP27 (human, not fully specified).
T3 construct: Natural isoform, amino acids 1-27 of PACAP38; also called peptide No. 1 (amino acids 1-27 of PACAP38)
T3 peptide: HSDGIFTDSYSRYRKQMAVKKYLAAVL
The description is as above.

Assay [3] has as its target T4, PACAP38 peptide fragment 6-35 (human).
T4 construct: also called peptide No. 4
T4 peptide: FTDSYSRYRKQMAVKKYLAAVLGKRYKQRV
Described as above.

Assay [4] addresses T5, amino terminal PACAP38 peptide (amino acids 1-13) (human).
T5 construct: also called N-terminal Peptide; N-terminal PACAP peptide
T5 peptide: HSDGIFTDSYSRY
The description is as above.

Assay [5] deals with T6, PACAP38 peptide fragment 6-36 (human).
T6 construct: also called peptide No. 12
T6 peptide: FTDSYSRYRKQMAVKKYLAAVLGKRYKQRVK
Described as above.

The target in assay [6] is T7, PACAP38 peptide fragment 27-38 (human, ends and bridges not checked).
T7 construct: also called peptide No. 6
T7 peptide: LGKRYKQRVKNK
The description is as above.

B1: mAb2 (antibody, V domains shown)
VH: QSLEESGGGLVQPEGSLTLTCTASGFSFNSSSYMCWVRQAPGKGLEWIGCIFTGSSGNTYYATWAQGRFTISKTSTTVTLEMTSLTAADTATYFCARDRAYFLVGYFYATYYFDLWGPGTLVTVSS
VL: DVVMTQTPSPVSAQVGGTVTINCQASESIDSDLSWYQQKPGQPPKLLIYRTFTLESGVPSRFKGSGSGTDYTLTISDLECADAAIYYCQCTDGSSISGSYGWDAFGGGTEVVVKG
notes: Rabbit monoclonal antibody (SLAM), recombinant; also called monoclonal anti-PACAP antibody 2; 2 (c81)
For the molecule B1, the “IC50, inhibition of PACAP38-induced activation of the PAC1 receptor (cAMP assay, CRL-2266 cells)” value in assay [1] was below 1 nM. In addition, the “potency relative to PAC1 Ab, inhibition of PACAP38-induced PAC1 receptor activation (cAMP assay)” value in assay [1] was around 10 fold. Further, the binding result (in assay [2]; with human PACAP27; in assay [3]; in assay [4]; in assay [5]) was “no binding (tested: 1:200 molar ratio (Ab:peptide))” in each case.

B2: mAb6 (antibody, V domains shown)
VH: QLEESGGGLVQPGASLTLTCTTSGFSLSDNYLCWVRQAPGRGLEWVACIGIVLRSTGATYYASWAEGRFTISKTSPTTVTLEMTSLTAADTATYFCALDLGYGGPLWGPGTLVTVSS
VL: AQVLTQTPASVSAAVGGTVTINCQASQSVYNNKNLAWYQQKPGQPPKLLIYFSSTLASGVPSRFRGSGSGTQFTLTISGVQCGDAATYYCLGEFGSIWAFGGGTEVVVKG
notes: Rabbit monoclonal antibody (SLAM), recombinant; also called monoclonal anti-PACAP antibody 6; 6 (c55)
In the case of B2, the binding result in assay [6] is reported as “no binding (tested: 1:200 molar ratio (Ab:peptide))”.
